Test results published in the supplement of paper PMC12042874.
± gives the uncertainty stated by the source.

Test: amyloid nucleation score (Sup35N fusion, yeast selection) (log enrichment); library NNK1; higher = more nucleation; inactive = no reads after selection
How it was run: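 Growth for 7 days at 30°C on medium lacking adenine and uracil followed a 24-hour induction with 100 μM copper sulfate of psi-negative yeast expressing peptides of 20 random codons fused to Sup35N. Input and output plasmid inserts were sequenced with Illumina, and sequences with under 100 input reads were excluded. Nucleation score is the DiMSum log enrichment of output over input reads, centred on the mode score of non-aggregating sequences.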

Row | Substance | amyloid nucleation score
1 | RALCLWTCKSYMFRN | -0.13 ± 1.1
2 | VCCGPSSEEP | 0.384 ± 0.85
3 | TGWEVV | -1.16 ± 0.75
4 | LCLFGSWLKKLKYNRFLFVG | -1.18 ± 1.7
5 | HLSLVNFCMSVSLESWYEWM | 0.819 ± 0.44
6 | GRRGKWVSSPWGGELKTCSK | 4.24 ± 0.084
7 | RFQTGPTLCSPQTEWPVLLN | 0.987 ± 0.56
8 | IDVFEITSKSFAARGAQFVH | -1.97 ± 1.3
9 | ITSYSFIRSNGSVMGSWGSV | -0.092 ± 0.65
10 | ISVVLWYDRALARCPSPDAP | 0.764 ± 0.49
11 | PRVSRRPWLKGFNNVSNQQI | 0.193 ± 1.5
12 | IKTNHKDNLWNNFNLYDKAH | 0.233 ± 0.31
13 | VYNWRLMEYHRGWDHFCYLS | -0.559 ± 0.33
14 | GGLPGNRSYRGWSSIFACLR | 0.021 ± 0.49
15 | PACFSGCEVGFASDMCVLEL | 0.947 ± 0.42
16 | NLGLDVCEYIVVTWLTNDWS | -0.258 ± 0.51
17 | IWMTGVLLNP | -0.223 ± 0.29
18 | PLFLVVTQMS | 5.25 ± 0.073
19 | LCGDAPREDYSHGYVLNQVG | 0.352 ± 0.78
20 | IHNNRVGVYCILNNTQRVE | 0.2 ± 0.61
21 | QCRITDSFCSGA | -0.163 ± 0.45
22 | TSIFCGSLLGAKVDSTPVPV | -1.27 ± 2.4
23 | HMLIFYSGLCKPSFVYYLLY | 1.04 ± 0.58
24 | LTLFLCISRLPGTPTLYWVL | 0.752 ± 0.62
25 | RGVHVHRFVLLAMMKFQFGS | inactive

Row | Substance | amyloid nucleation score
26 | YPVRFHTYVVISTFGEIGFG | 0.822 ± 0.43
27 | TYGDGEAE | inactive
28 | EMYKSVP | 0.109 ± 0.48
29 | TVTWASGFMGGVDHCSWGQV | 0.043 ± 0.65
30 | YEKSFGTYTM | -0.045 ± 0.28
31 | HSRSCKSFLI | inactive
32 | KYVCGLTDTVIRGMLKVIRA | 0.559 ± 0.27
33 | ALSPRVSSLGNFT | -0.691 ± 0.53
34 | RWFYSCDVVAFKGH | 0.584 ± 0.84
35 | RLYPQYLNFKVCKFGSLDGG | -0.836 ± 0.31
36 | WNRVWIMYGT | 1.57 ± 0.22
37 | SYRSYGSSSCSVWRTAAGDQ | 2.9 ± 0.084
38 | FWIWVCSDLLLD | 0.423 ± 0.43
39 | TRLGYFNFGSLHVSLWDFML | 0.6 ± 0.28
40 | NRLRNGPNDRVVRATAPKGF | 0.259 ± 0.4
41 | VEDAIDACKFNCDSIDMTTD | -0.206 ± 0.75
42 | TRHFVTVFGCVDNRVEYLNG | 3.22 ± 0.1
43 | QDIARPRYIPSNNRKKTREP | -1.35 ± 1.9
44 | NNINWVKGKHR | -1.06 ± 2.4
45 | ILEVCRHRVIIIRNYLSYCA | 2.8 ± 0.24
46 | LQSTFFFYGGCKRVWSMMYH | 4.45 ± 0.12
47 | ITFLRSTIPSVRTRQRLHEL | 0.783 ± 0.4
48 | SHYNNNHSAGWLLQLFTMAC | 0.05 ± 0.88
49 | CWVYDGRIYPHL | 1.05 ± 0.85
50 | SILVRVSVR | 0.444 ± 1.2

Row | Substance | amyloid nucleation score
51 | QNKVCNCDRVFTRFIESNSL | -0.254 ± 0.38
52 | HPQYMLPT | 0.569 ± 0.32
53 | DVILCAK | inactive
54 | TEQGMWHSLAGGR | inactive
55 | FLTSECSTSSLHS | 0.56 ± 0.85
56 | KMGWLRH | -0.566 ± 0.5
57 | TSSWQVPVNAPEVN | inactive
58 | NSFWTLVFSGHPACWLTVFI | -0.75 ± 0.59
59 | CKSRR | 0.034 ± 0.69
60 | DFCVPHGNCFLA | -0.747 ± 0.48
61 | PVCFAFQFRATPNMQVHQPS | -0.108 ± 0.75
62 | SLGIHPHVDKLLYRRFQLDY | -0.567 ± 0.77
63 | LCFVPGS | 3.73 ± 0.073
64 | FLLESL | inactive
65 | LDTGVMMEIKICIHYRDCYD | 1.84 ± 0.21
66 | SGYWAPINLTGVMDS | 0.053 ± 1.1
67 | FYRFDQRNLEDVGGGMYGSS | 0.3 ± 0.83
68 | SLKCSNGR | 0.49 ± 0.3
69 | GRVKINKNLSVYKYINFRDS | 2.04 ± 0.21
70 | GCYQYWCRSFHVGEIPVP | -0.003 ± 1.1
71 | PWPVSFYFMVNIVWCGRVIL | 1.06 ± 0.26
72 | GFECSCKYHDFTGSALCNTL | 0.613 ± 0.36
73 | WRFEYWFRGIHYCIYNYFC | -0.011 ± 0.89
74 | VERLAT | -0.259 ± 0.73
75 | RTVTWEMQKVDWSLWSCRWL | 2.56 ± 0.17

Row | Substance | amyloid nucleation score
76 | RVVLCDI | 0.261 ± 0.75
77 | VVNWIASMGCIFYRVPNVSG | 4.66 ± 0.13
78 | VYLNFTISKVEVVTFFFIMG | 0.165 ± 0.34
79 | RQVPGIKCKSFTLYFADITL | 3.85 ± 0.1
80 | GGALSCVRDF | 1.39 ± 0.78
81 | PTLLALYGG | -0.414 ± 0.61
82 | VRHLRR | -0.496 ± 0.55
83 | VVLDAFIPWYSLLATSSVGA | -0.777 ± 2.4
84 | FGMLIAVRSR | 0.315 ± 0.29
85 | MYSLVCNHCAQSISIPSRWS | 3.97 ± 0.11
86 | ADCFCNRFNVICVKHYGSAR | 0.159 ± 0.42
87 | HQVNSGDLSNMVLCLMLIRW | 1.84 ± 0.19
88 | SEMSLSRDSCLLSIV | 0.141 ± 0.18
89 | LMRHYSHMFYIRHAVLLTNP | 0.255 ± 0.36
90 | YSLNTSTAWESAAAVTW | 0.196 ± 0.4
91 | IVSTMCPRTDGVPCDNF | -0.035 ± 0.36
92 | LDGFSVNLCWFRHTERCVAC | -0.224 ± 0.78
93 | WHTCYHSWSASIVLAPVSTT | -0.009 ± 0.39
94 | SWNVVFKVPLGLRVLYGYLC | -0.197 ± 0.28
95 | SDLWLLECWTLDICGWLKAT | 0.992 ± 0.58
96 | VKQSST | 0.212 ± 0.66
97 | RGYQTSGLT | -0.756 ± 2.4
98 | GDFKTRLFSCLDSRLILGRG | -0.485 ± 1.5
99 | NSEMCWFFNMISSTLAHLLV | 1.75 ± 0.31
100 | CFWRNFDRGEAS | 0.94 ± 0.97

Row | Substance | amyloid nucleation score
101 | DAYMMLFLYSPVWECFLMKG | -0.084 ± 0.28
102 | YFSKTISFLFSFNSCYEFIK | 1.19 ± 0.44
103 | FNIIASPSWVSVRNHGNLWV | 4.91 ± 0.062
104 | FGLCCRSRVFWRWLIKDWKD | -0.566 ± 1.9
105 | AVSIWSPRIGVCETFQLDVV | -0.573 ± 0.57
106 | SARYLMEFWKVHIKAYIMSF | 0.099 ± 0.79
107 | CKDCYLITGVVINYPSRPLW | 5.985 ± 0.049
108 | LYVDGGPCPTAELGQRSYEK | -0.17 ± 0.42
109 | FLVCLFINVVTPRTYHLWVY | -0.174 ± 0.49
110 | ISVKHKFPGANSSVRWDRFW | 3.47 ± 0.11
111 | GLGWHFTL | -0.407 ± 0.28
112 | KVFINVYIKRQRNKCRRSNR | 5.899 ± 0.054
113 | AFRFHQHMACREL | 4.36 ± 0.055
114 | SGHRFCAVRSRATGERFYGW | inactive
115 | PGKICSNDQVNVSAY | -0.179 ± 0.49
116 | LTCEFRGTRPMMYASDPLFY | 1.14 ± 0.76
117 | NMLVRKAG | -0.036 ± 0.73
118 | WIPSFIQMDTVVRDTVNKEF | 1.09 ± 0.74
119 | HPQVTWGSRLAVNFCAWCYG | 4.5 ± 0.054
120 | VSKLLCLRMHMLKLW | -0.48 ± 0.48
121 | GARYNASDRGEASYLIEHCG | -0.531 ± 0.99
122 | ITFLLRSFRVHS | inactive
123 | TYLFF | inactive
124 | SYRIMPLMCILNCLFNCIYI | 4.8 ± 0.059
125 | QESVGSNRRVVGDNASLRLL | -0.211 ± 0.86

Row | Substance | amyloid nucleation score
126 | AVLIRSGCRIRNRRHG | 0.782 ± 0.75
127 | LVFVTWLSMHVNTTGVFSLS | 0.242 ± 0.41
128 | LNDGTGDQ | -0.138 ± 0.37
129 | DAIHVWCICRKSLVFILRNS | 0.086 ± 1
130 | HVRSWI | 1.76 ± 0.76
131 | LFTCVQFIMGVDDRWKRARS | 2.19 ± 0.26
132 | SMCLCVYIWIALYGWVMLIP | 0.217 ± 0.21
133 | LGMIADYQKQKMMSSGTSLR | 0.289 ± 0.69
134 | SFRAKDG | inactive
135 | LYVDH | inactive
136 | MMWLCAVFPGIRFYGYPGLN | -1.88 ± 2.7
137 | DNVFEALAL | inactive
138 | RINLVSVYDRSNDKVSIPS | 0.454 ± 0.55
139 | NSINFFNMFVYWL | 6.26 ± 0.056
140 | EGRLTVE | -0.011 ± 0.32
141 | VRRVPKLVHAADLELWAGSE | -0.754 ± 1.1
142 | LGYKSGVFLWGFRFHP | -1.35 ± 2.1
143 | MVLFKELIMVFTQARAS | 0.156 ± 0.28
144 | NSYWLRCILPM | -0.065 ± 0.3
145 | SMLRCLY | 0.758 ± 0.85
146 | VLNLIRRGIWGYHHEMGTG | -0.947 ± 0.81
147 | LLKWLVDAW | 0.493 ± 0.25
148 | LVFCVLMW | 0.532 ± 0.16
149 | KHYFCKMSV | -0.029 ± 0.37
150 | SMVRYTMDSKVKKRSSVVVG | 3.56 ± 0.18

Row | Substance | amyloid nucleation score
151 | CVNIRNQKQLSFAGLVDLSV | 0.358 ± 0.59
152 | IINVLC | 3.73 ± 0.056
153 | PFSYLMDLTIYVGKSLQSNE | 0.119 ± 0.35
154 | HYAVGRARNLGCLDLSQ | 0.064 ± 0.48
155 | YSVPVCGDMLTGWYCNKYKY | inactive
156 | SYILCHWTFGDKGRFPQNYR | 2.3 ± 0.18
157 | HKSILVDVILSHFSSCSRCH | 5.3 ± 0.074
158 | RMSSIKYVMWGHFAIVSTKV | 1.99 ± 0.43
159 | NTKSSVSYYFFMGIIFFSEI | 0.355 ± 0.32
160 | MLVCDWKTDLGNI | 0.811 ± 0.64
161 | VVMVLSKGPDIRSNMRCSSV | -1.9 ± 1.4
162 | RFLSSALRARRYSRPVPLVM | 1.13 ± 0.76
163 | MYGITKSA | 0.195 ± 0.64
164 | CFKFARGGVLI | 1.32 ± 0.66
165 | LSIILRNVMCNIFSSNLITH | 0.973 ± 0.16
166 | FFLWGRW | -0.341 ± 0.43
167 | DVEIFTISWVKEVVYRDTWA | 1.59 ± 0.7
168 | VLIMYYGCLDDFLLRDYSLL | 0.856 ± 0.67
169 | YSLVICNQNSFPNMVDIVLG | 2.53 ± 0.074
170 | WSSWGGSTGVVRKREELCGR | -0.44 ± 0.5
171 | WWFRK | 0.654 ± 1.1
172 | RGINSFLMSFALCWAHWRGV | -0.072 ± 0.37
173 | LKVRLNESIICYAMRVKHIC | 0.345 ± 0.36
174 | FTCFAK | 1.14 ± 0.52
